Consider 94 variants from the supplement of paper PMC10567573.

First the molecules themselves.
B1: PHTF1 (parent)
chain: RVKLISNKGTETDNDPSCVHPIIK
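Note: lentivirally expressed fusions sorted by FACS into six bins by GFP to DsRed ratio, PSI derived from sequencing read proportions per bin multiplied by bin number.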

The variants in this series derive from B1. The series can be described thus: protein stability index of a GFP-peptide fusion (GPS, HEK-293T) (PSI 1-6); higher = more stable. The note with it: c terminus: a fixed tail appended.
On to RVKLISNKGTNTDNDPSCVHPIIK [E11N], for which the protein stability index worked out at 4.04.
Consider RVKLISNKGTLTDNDPSCVHPIIK [E11L], for which the protein stability index came out at 3.41.
As to RVKLISNKGTITDNDPSCVHPIIK [E11I], the protein stability index came to 3.24.
Next, RVKLISNKGTMTDNDPSCVHPIIK [E11M]: 3.13; RVKLISNKGTVTDNDPSCVHPIIK [E11V]: 3.16; RVKLISNKGTTTDNDPSCVHPIIK [E11T]: 3.82.
The same measure for RVKLISNKGTGTDNDPSCVHPIIK [E11G]: 3.57; for RVKLISNKGTATDNDPSCVHPIIK [E11A]: 4.04; for RVKLISNKGTYTDNDPSCVHPIIK [E11Y]: 3.
As for RVKLISNKGTPTDNDPSCVHPIIK [E11P], the protein stability index stood at 3.95.
On to RVKLISNKGTHTDNDPSCVHPIIK [E11H], for which the protein stability index worked out at 3.41.
For RVKLISNKGTKTDNDPSCVHPIIK [E11K], the protein stability index is 3.7.
With RVKLISNKGTDTDNDPSCVHPIIK [E11D], the protein stability index was 4.05.
The same measure for RVKLISNKGTQTDNDPSCVHPIIK [E11Q]: 3.57.
In the case of RVKLISNKGTWTDNDPSCVHPIIK [E11W], the protein stability index is 2.43.
On to RVKLISNKGTFTDNDPSCVHPIIK [E11F], for which the protein stability index amounted to 2.71.
With RVKLISNKGTRTDNDPSCVHPIIK [E11R], the protein stability index amounted to 3.45.
Next, RVKLISNKGTCTDNDPSCVHPIIK [E11C]: 3.69.
For RVKLISNKGTSTDNDPSCVHPIIK [E11S], the protein stability index was 3.55.
Take RVKLISNGGTETDNDPSCVHPIIK [K8G]: the protein stability index came to 4.62.
Consider RVKLISNDGTETDNDPSCVHPIIK [K8D], for which the protein stability index is 4.45.
Next, RVKLISNNGTETDNDPSCVHPIIK [K8N]: 3.96; RVKLISNTGTETDNDPSCVHPIIK [K8T]: 4.33; RVKLISNYGTETDNDPSCVHPIIK [K8Y]: 3.22.
For the variant RVKLISNCGTETDNDPSCVHPIIK [K8C], the protein stability index was determined as 3.04.
Turning to RVKLISNVGTETDNDPSCVHPIIK [K8V], the protein stability index was found to be 3.88.
Next, RVKLISNQGTETDNDPSCVHPIIK [K8Q]: 4.7; RVKLISNFGTETDNDPSCVHPIIK [K8F]: 3.56; RVKLISNHGTETDNDPSCVHPIIK [K8H]: 3.94.
The same measure for RVKLISNRGTETDNDPSCVHPIIK [K8R]: 3.95; for RVKLISNSGTETDNDPSCVHPIIK [K8S]: 4.21.
For RVKLISNLGTETDNDPSCVHPIIK [K8L], the protein stability index was 3.33.
With RVKLISNAGTETDNDPSCVHPIIK [K8A], the protein stability index stood at 4.1.
The same measure for RVKLISNIGTETDNDPSCVHPIIK [K8I]: 3.78.
As for RVKLISNMGTETDNDPSCVHPIIK [K8M], the protein stability index amounted to 3.15.
Turning to RVKLISNEGTETDNDPSCVHPIIK [K8E], the protein stability index was determined as 4.42.
Take RVKLISNPGTETDNDPSCVHPIIK [K8P]: the protein stability index worked out at 3.64.
For the variant RVKLISNWGTETDNDPSCVHPIIK [K8W], the protein stability index turned out to be 2.89.
The same measure for RVMLISNKGTETDNDPSCVHPIIK [K3M]: 3.67; for RVNLISNKGTETDNDPSCVHPIIK [K3N]: 4.32.
RVVLISNKGTETDNDPSCVHPIIK [K3V]: the protein stability index came out at 3.29.
On to RVYLISNKGTETDNDPSCVHPIIK [K3Y], for which the protein stability index is 2.86.
Turning to RVLLISNKGTETDNDPSCVHPIIK [K3L], the protein stability index stood at 2.72.
RVTLISNKGTETDNDPSCVHPIIK [K3T]: the protein stability index worked out at 4.19.
The same measure for RVSLISNKGTETDNDPSCVHPIIK [K3S]: 4.33; for RVGLISNKGTETDNDPSCVHPIIK [K3G]: 4.31.
Next, RVRLISNKGTETDNDPSCVHPIIK [K3R]: 3.92; RVHLISNKGTETDNDPSCVHPIIK [K3H]: 3.83; RVQLISNKGTETDNDPSCVHPIIK [K3Q]: 4.07.
In the case of RVWLISNKGTETDNDPSCVHPIIK [K3W], the protein stability index amounted to 2.56.
RVILISNKGTETDNDPSCVHPIIK [K3I]: the protein stability index is 2.81.
Consider RVPLISNKGTETDNDPSCVHPIIK [K3P], for which the protein stability index was determined as 4.55.
Next, RVKLISQKGTETDNDPSCVHPIIK [N7Q]: 4.09.
RVKLISCKGTETDNDPSCVHPIIK [N7C]: the protein stability index was 3.64.
The same measure for RVKLISAKGTETDNDPSCVHPIIK [N7A]: 4.02.
For the variant RVKLISKKGTETDNDPSCVHPIIK [N7K], the protein stability index amounted to 4.31.
Consider RVKLISWKGTETDNDPSCVHPIIK [N7W], for which the protein stability index was 3.1.
Next, RVKLISTKGTETDNDPSCVHPIIK [N7T]: 4; RVKLISEKGTETDNDPSCVHPIIK [N7E]: 4.2; RVKLISLKGTETDNDPSCVHPIIK [N7L]: 3.36.
The same measure for RVKLISVKGTETDNDPSCVHPIIK [N7V]: 3.77; for RVKLISDKGTETDNDPSCVHPIIK [N7D]: 4.26.
RVKLISYKGTETDNDPSCVHPIIK [N7Y]: the protein stability index is 3.32.
For the variant RVKLISPKGTETDNDPSCVHPIIK [N7P], the protein stability index amounted to 4.09.
As to RVKLISRKGTETDNDPSCVHPIIK [N7R], the protein stability index stood at 3.47.
In the case of RVKLISSKGTETDNDPSCVHPIIK [N7S], the protein stability index came out at 4.22.
For the variant RVKLISHKGTETDNDPSCVHPIIK [N7H], the protein stability index was determined as 3.79.
Next, RVKLISMKGTETDNDPSCVHPIIK [N7M]: 3.36; RVKLISFKGTETDNDPSCVHPIIK [N7F]: 2.92; RVKLISIKGTETDNDPSCVHPIIK [N7I]: 3.6.
Next, RVKLISGKGTETDNDPSCVHPIIK [N7G]: 3.96; RVKLISNKGTETENDPSCVHPIIK [D13E]: 4.21; RVKLISNKGTETCNDPSCVHPIIK [D13C]: 3.21.
Turning to RVKLISNKGTETANDPSCVHPIIK [D13A], the protein stability index is 3.72.
As to RVKLIDNKGTETDNDPSCVHPIIK [S6D], the protein stability index was 4.49.
As for RVKLIHNKGTETDNDPSCVHPIIK [S6H], the protein stability index was found to be 4.03.
Take RVKLIANKGTETDNDPSCVHPIIK [S6A]: the protein stability index was 4.
RVKLIVNKGTETDNDPSCVHPIIK [S6V]: the protein stability index amounted to 3.52.
Next, RVKLIMNKGTETDNDPSCVHPIIK [S6M]: 3.14.
For the variant RVKLICNKGTETDNDPSCVHPIIK [S6C], the protein stability index was 3.76.
Turning to RVKLIQNKGTETDNDPSCVHPIIK [S6Q], the protein stability index came to 4.26.
Next, RVKLILNKGTETDNDPSCVHPIIK [S6L]: 2.97; RVKLIWNKGTETDNDPSCVHPIIK [S6W]: 2.86; RVKLIGNKGTETDNDPSCVHPIIK [S6G]: 4.38.
As for RVKLIINKGTETDNDPSCVHPIIK [S6I], the protein stability index was 3.23.
As to RVKLINNKGTETDNDPSCVHPIIK [S6N], the protein stability index worked out at 4.26.
As to RVKLIFNKGTETDNDPSCVHPIIK [S6F], the protein stability index was determined as 2.77.
On to RVKLIYNKGTETDNDPSCVHPIIK [S6Y], for which the protein stability index is 3.34.
Next, RVKLIKNKGTETDNDPSCVHPIIK [S6K]: 4.36; RVKLITNKGTETDNDPSCVHPIIK [S6T]: 3.95; RVKLIRNKGTETDNDPSCVHPIIK [S6R]: 3.62.
Turning to RVKLIENKGTETDNDPSCVHPIIK [S6E], the protein stability index turned out to be 3.85.
The same measure for RVKLIPNKGTETDNDPSCVHPIIK [S6P]: 4.17; for RVKLISNKGTEADNDPSCVHPIIK [T12A]: 4.11.
